Laboratory results reported in US10780117.

Molecular target: Myc-tagged CRT expressed in J774 cells
Sequence (P27797 18-417): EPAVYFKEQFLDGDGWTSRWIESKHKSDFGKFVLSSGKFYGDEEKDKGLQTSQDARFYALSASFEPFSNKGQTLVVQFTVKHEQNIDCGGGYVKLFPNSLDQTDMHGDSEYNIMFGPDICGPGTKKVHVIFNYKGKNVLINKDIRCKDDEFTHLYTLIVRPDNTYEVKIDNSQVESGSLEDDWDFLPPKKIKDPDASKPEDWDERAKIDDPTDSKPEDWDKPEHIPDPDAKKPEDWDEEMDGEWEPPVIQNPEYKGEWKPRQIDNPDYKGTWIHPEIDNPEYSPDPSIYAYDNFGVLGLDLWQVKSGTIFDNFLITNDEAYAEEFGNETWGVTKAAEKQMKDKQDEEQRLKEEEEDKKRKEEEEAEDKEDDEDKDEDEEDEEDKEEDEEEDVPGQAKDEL

B1: Bruton's tyrosine kinase (Btk) in J774 mouse macrophage cells (protein)
chain: AAVILESIFLKRSQQKKKTSPLNFKKRLFLLTVHKLSYYEYDFERGRRGSKKGSIDVEKITCVETVIPEKNPPPERQIPRRGEESSEMEQISIIERFPYPFQVVYDEGPLYVFSPTEELRKRWIHQLKNVIRYNSDLVQKYHPCFWIDGQYLCCSQTAKNAMGCQILENRNGSLKPGSSHRKTKKPLPPTPEEDQILKKPLPPEPTAAPISTTELKKVVALYDYMPMNANDLQLRKGEEYFILEESNLPWWRARDKNGQEGYIPSNYITEAEDSIEMYEWYSKHMTRSQAEQLLKQEGKEGGFIVRDSSKAGKYTVSVFAKSTGEPQGVIRHYVVCSTPQSQYYLAEKHLFSTIPELINYHQHNSAGLISRLKYPVSKQNKNAPSTAGLGYGSWEIDPKDLTFLKELGTGQFGVVKYGKWRGQYDVAIKMIREGSMSEDEFIEEAKVMMNLSHEKLVQLYGVCTKQRPIFIITEYMANGCLLNYLREMRHRFQTQQLLEMCKDVCEAMEYLESKQFLHRDLAARNCLVNDQGVVKVSDFGLSRYVLDDEYTSSVGSKFPVRWSPPEVLMYSKFSSKSDIWAFGVLMWEIYSLGKMPYERFTNSETAEHIAQGLRLYRPHLASERVYTIMYSCWHEKADERPSFKILLSNILDVMDEES
**Q.** With B1 as the protein, how does the “tyrosine phosphorylation of immunoprecipitated myc-CRT (immunoblot with anti-phosphotyrosine antibody)” value read?
**A.** The value was “Immunoblot showing CRT phosphorylation upon Btk activation”.
